# Experimental data taken from PMC3384007, “Crystal Structure of the VapBC Toxin–Antitoxin Complex from Shigella flexneri Reveals a Hetero-Octameric DNA-Binding Assembly” (Journal of Molecular Biology, 2011).
# B1: DNA III (dsDNA)
# DNA 1: ATAAACGTATATCCCTTTGACATATCCCGG
# DNA 2: CCGGGATATGTCAAAGGGATATACGTTTAT
# B2: Shigella flexneri VapB antitoxin (His6-VapB) (natural protein, UniProt O06663 1-75, looked up)
# chain: METTVFLSNRSQAVRLPKAVALPENVKRVEVIAVGRTRIITPAGETWDEWFDGHSVSTDFMDNREQPGMQERESF
# notes: VapB antitoxin of the vapBC locus of the Shigella flexneri 2a virulence plasmid pMYSH6000; gene optimized for expression; No cleavage of the tag is described; In the assembly four copies of VapB stand with four of VapC (VapB4C4)
# B3: Shigella flexneri VapC toxin (MvpT) (natural protein)
# chain: MLKFMLDTNICIFTIKNKPASVRERFNLNQGKMCISSVTLMELIYGAEKSQMPERNLAVIEGFVSRIDVLDYDAAAATHTGQIRAELARQGRPVGPFDQMIAGHARSRGLIIVTNNTREFERVGGLRTEDWS
# notes: Untagged in this construct, purified through His6-VapB; also called PIN domain
# Experiments:
# [1] = biological target: T1, VapBC complex (VapB:His6-VapC), hetero-octamer VapB4C4 (Shigella flexneri (plasmid pMYSH6000), UniProt O06663;O06662 1-75;1-132); assay: EMSA; single shift, highest affinity site; 2.5 ng/ul VapBC, 0.1 mg/ml salmon sperm DNA; conditions: protein: recombinant; tags: His6 on VapC; chain copies: 4;4; label: 5'-32P on SF-EMSA2-f; blunt
# T1 sequence 1: B2 chain
# T1 sequence 2: B3 chain
# [2] = biological target: the molecule itself; assay: crystal structure; His6-VapB:VapC complex, 7 mg/ml; crystals in 0.1 M Bis-Tris pH 5.5, 1 M ammonium sulfate, 0.5% (v/v) PEG 3350, 19 °C; 2.7 Å; four copies of each protein in the asymmetric unit (VapB4C4)
# [3] = biological target: the molecule itself; assay: cross-linking; purified VapBC complex 1 mg/ml in 100 mM sodium borate pH 9.1 with dimethyl superimidate (DMSI), aliquots after 5-120 min, 15% Coomassie-stained SDS-PAGE
binder,measurement,setting,value
B1,binding result,[1],binds
B2,stoichiometry N,[2],2
same,stoichiometry N,[3],4
B3,stoichiometry N,[3],4
